For two substances, stoichiometry N results are on record in publication PMC5431965.

Assay [1] concerns the target HydF V261C mutant (cysteine-less background), spin labeled with MTSSL (Thermotoga neapolitana). Description: PELDOR (DEER) pulse EPR; distances between spin labels on the two monomers; protein about 150 uM in deuterated buffer with 33% v/v deuterated glycerol, quickly frozen, Q-band, 50 K; without and with 10 mM GTP.
Assay [2] addresses HydF, wild type recombinant, Thermotoga neapolitana (Thermotoga neapolitana). Kind of assay: SEC; Superdex 200 GL 10 300 in 25 mM Tris-HCl pH 8.0, 200 mM KCl, 1 mM MgCl2; column calibrated with molecular weight standards. (In general: In gel filtration, larger molecules generally elute earlier.)

For the substance “HydF V261C mutant (cysteine-less background), spin labeled with MTSSL (natural protein)”, the stoichiometry N in assay [1] stood at 2.

Take “HydF, wild type recombinant, Thermotoga neapolitana (natural protein)”: the stoichiometry N in assay [2] stood at 2.

What is called stoichiometry N is the number of molecules, sites or subunits per partner or assembly.
